Here are results for one molecule from article PMC7785802, “Therapeutic Efficacy of a Trichinella Spiralis Paramyosin-Derived Peptide Modified With a Membrane-Targeting Signal in Mice With Antigen-Induced Arthritis” (Frontiers in Microbiology, 2020).

In this assay the target is T1, original peptide (Trichinella spiralis paramyosin-derived tetradecapeptide, …) (Trichinella spiralis).
T1 construct: also called Ts-pmy-derived peptide; original Ts-Pmy-derived peptide; source: synthetic peptide (solid-phase synthesis, GL Biochem; RP-HPLC purified up to 95%)
T1 sequence (P02748 22-559): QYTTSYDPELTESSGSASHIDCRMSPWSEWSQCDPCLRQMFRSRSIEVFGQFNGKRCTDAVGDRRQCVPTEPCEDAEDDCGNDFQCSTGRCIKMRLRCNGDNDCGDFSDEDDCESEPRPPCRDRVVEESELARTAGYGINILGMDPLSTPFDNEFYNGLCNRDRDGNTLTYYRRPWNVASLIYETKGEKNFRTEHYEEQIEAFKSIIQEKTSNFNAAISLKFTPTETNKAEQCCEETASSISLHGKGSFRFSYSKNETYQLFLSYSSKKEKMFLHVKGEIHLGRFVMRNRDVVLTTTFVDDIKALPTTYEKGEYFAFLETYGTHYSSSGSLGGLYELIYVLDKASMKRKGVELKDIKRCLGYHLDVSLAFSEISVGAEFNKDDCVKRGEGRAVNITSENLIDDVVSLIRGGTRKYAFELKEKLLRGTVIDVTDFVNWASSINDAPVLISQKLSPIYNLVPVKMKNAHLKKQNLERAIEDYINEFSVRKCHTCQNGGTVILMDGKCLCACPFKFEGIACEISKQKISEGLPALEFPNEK
Description: MST. Particulars: both partners purified.

B1: human complement component C9 (natural protein)
chain: not shown
modifications: fluorescent probe NT-647 bound covalently (in the MST assay)
notes: also called human C9
For the molecule B1, the binding result was “binds”.
